According to article PMC7692546:

Key:
[1] = target: F. hepatica cathepsin L3 (Fasciola hepatica); experiment: enzyme inhibition (fluorogenic peptide substrate); KT inhibitor (2 μM) incubated with each protease in 100 μl reaction buffer for 15 min at 37 °C, then fluorogenic substrate; inhibition constants by the Morrison equation for tight-binding inhibition
[2] = target: F. hepatica cathepsin L3 (Fasciola hepatica)
[3] = target: F. hepatica cathepsin L1 (Fasciola hepatica); experiment: enzyme inhibition (fluorogenic peptide substrate); KT inhibitor (2 μM) incubated with each protease in 100 μl reaction buffer for 15 min at 37 °C, then fluorogenic substrate; inhibition constants by the Morrison equation for tight-binding inhibition
[4] = target: F. hepatica cathepsin L2 (Fasciola hepatica); experiment: as above
[5] = target: Human cathepsin K (human) (UniProt P43235); experiment: as above
Chain of Human cathepsin K (human) (P43235 115-329): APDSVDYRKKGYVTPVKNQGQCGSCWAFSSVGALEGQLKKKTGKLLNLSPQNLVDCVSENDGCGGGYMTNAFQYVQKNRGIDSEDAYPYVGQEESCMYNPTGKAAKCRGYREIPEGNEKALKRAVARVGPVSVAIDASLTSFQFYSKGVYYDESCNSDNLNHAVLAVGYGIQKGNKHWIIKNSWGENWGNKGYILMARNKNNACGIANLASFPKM

[6] = target: Human cathepsin L (human); experiment: as above
[7] = target: Bovine trypsin (bovine)
[8] = target: Bovine trypsin (bovine); experiment: enzyme inhibition (fluorogenic peptide substrate); KT inhibitor (2 μM) incubated with each protease in 100 μl reaction buffer for 15 min at 37 °C, then fluorogenic substrate; inhibition constants by the Morrison equation for tight-binding inhibition

Substance | Ki [1] [nM] | reduction of FhCL3 activity at 2 μM inhibitor (fluorogenic substrate) [2] [%] | Ki [3] [nM] | Ki [4] [nM] | Ki [5] [nM] | Ki [6] [nM] | reduction in trypsin activity at 2 μM inhibitor (fluorogenic substrate) [7] [%] | Ki [8] [nM]
Recombinant FhKT1.1 (Fasciola hepatica Kunitz-type inhibitor 1.1) (natural protein) | 1.8 | 93.1 |  |  |  |  |  | 
rFhKT1.1Arg^19/Ala^19 (natural protein) | 32.8 |  | 4.2 | 35 | 18.5 | 0.3 |  | 
rFhKT1.1Leu^15/Arg^15 (natural protein) | 3.6 |  |  |  |  |  |  | 
Recombinant FhKT1.3 (Fasciola hepatica Kunitz-type inhibitor 1.3) (natural protein) | 3.2 |  | 0.6 | 10.6 | 5.5 | 2.6 | 99.2 | 1.8
